This assay has as its target T1, human PD-1 Fc recombinant protein (Homo sapiens, UniProt Q15116).
T1 construct: Programmed Cell Death Protein-1 (PD-1), human, bought as an Fc fusion; Ran at about 63 kDa in the blot; Surmise: the commercial product holds the extracellular domain of PD-1 fused to a human IgG1 Fc; The ELISA methods say only 'recombinant human PD-1'; also called recombinant human PD-1; Programmed Cell Death Protein-1; source: bought: Peprotech, Catalog # 310-40-1 MG
The assay can be described thus: far-Western, overlay or dot blot; Western blot: PD-1 Fc (200 ng) separated on 12% SDS-PAGE (denatured), transferred to nitrocellulose, blocked with 5% milk in TBST, probed overnight at 4°C with 10 μg/mL purified nanobody, detected with anti-His tag HRP antibody. The conditions noted are these: both partners purified.

T1 sequence (Q15116 25-170): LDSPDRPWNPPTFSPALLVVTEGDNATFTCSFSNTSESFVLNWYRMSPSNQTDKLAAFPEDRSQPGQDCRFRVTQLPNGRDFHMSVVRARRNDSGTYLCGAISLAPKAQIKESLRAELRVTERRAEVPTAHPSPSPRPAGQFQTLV

B1: designed PD-1-specific nanobody (Cemiplimab CDRs grafted onto Caplacizumab framework regions) (VHH)
VHH: EVQLVESGGGLVQPGGSLRLSCAASGFTFSNFGMGWFRQAPGKGRELVAAISGGGRDTYYPDSVEGRFTISRDNAKRMVYLQMNSLRAEDTAVYYCVKWGNIYFDYWGQGTQVTVSS
notes: CDRs of the Cemiplimab heavy chain grafted onto the framework regions of Caplacizumab; 117 residues, 12.5 kDa without tag; Gene inserted into pET-28a (+) at NdeI and XhoI; with His tag about 13.5 kDa; Surmise: this cloning usually gives an N-terminal His6 tag with a thrombin site from the vector; also called NB; designed nanobody; source: E. coli BL21 (DE3), pET-28a (+), purified (Ni-NTA, …)
B1: the binding result is reported as “binds”.

The record behind these values is article PMC11782559, “Innovative CDR grafting and computational methods for PD-1 specific nanobody design” (Frontiers in Bioinformatics, 2024).
